Measurements from patent publication US20190212347A1, “BIO-ANALYTICAL METHOD FOR INSULIN ANALOGUES” (BIOCON LIMITED, priority 2016, published 2019).

Experiments:
[1] = Pharmacokinetics study: IN-105 plasma levels by LC/MS/MS in euglycemic clamp study in patients with Type 1 diabetes; format: in vivo, human
Description: The method was considered validated successfully since it passed all the pre-determined criteria in the validation protocol. The validated method was subsequently used for measurement of IN-105 levels in a euglycemic clamp study carried out in patients with Type 1 diabetes. The method for the determination of IN-105 in human plasma has been validated successfully over the concentration range 0.200 ng/ml to 50.0 ng/mL.
Plasma concentration data for each patient and treatment was analysed by a non-compartmental method. The area under plasma level curve for AUC0-t was calculated by the trapezoidal rule. The primary pharmacokinetic parameters (mean±SD) were Cmax, AUClast, Tmax and PD parameters were Tmin, Cmin, AUClast. Ratios and 90% CIs of geometric means were calculated for PK and PD parameters from mixed effects model with fixed effects for sequence, period and treatment, and patients within sequence as a random effect for log transformed Cmax and AUC.
The average plasma concentration time profile of IN-105 obtained after administration of IN-105 tablets in volunteers is shown in FIGS. 13-14.

[2] = Extract stability at 10° C.; format: physicochemical; settings: extracts stored at 10° C. for approximately 85 hours
Description: (§1) Validation consisted of intra run precision and bias, inter-run precision and bias, dilution integrity, matrix related modification of ionisation, auto-injector carry over, stability in whole blood at room temperature and on ice, freeze thaw stability of plasma over 5 cycles, 24 h room temperature stability of plasma, frozen stability in plasma at −20 and −80° C. for 73 days, recovery and extract stability at 10° C.

[3] = Stability in human plasma (room temperature, freeze/thaw, frozen storage); format: in vitro ADME
Description: Assessment of sample stability on storage (storage stability) was carried according to table (8), Acceptance criterion was defined as a recovered concentration within ±15% of the nominal spiked concentration. All standards were used within its stability period.
as §1, with “[…],” for “frozen stability in plasma at −20 and −80° C. for 73 days,”

[4] = Stability of stock solution in acetic acid (2%) in methanol:water; format: physicochemical; settings: acetic acid (2%) in methanol:water (30:70 v/v)
Description: Two separate stock solutions were prepared by dissolving 2 mg of IN-105 and dissolving in 1 mL of 2% acetic acid containing methanol:water in the ratio of 30:70 v/v. Thus, the stock solution of 2000 μg/mL was prepared.
One was named “calibration stock” and other was named “quality control stock”. The stock solution was stored at −20° C. for 40 days.
In one embodiment nitrogen isotope labelled insulin having purity 96.3% and 96.1% respectively, was used as analytical standard and internal standard for further analysis. Glargine (3.64 mg/mL) of 100% purity was used as co-administered standard in the analytical procedure. The stability studies to understand storage stability and solution stability were carried out.
In addition to the experiments described above, selectivity of the method in plasma (K2EDTA/K3EDTA) from different sources, effect of lipaemia and haemolysis, selectivity and modification of ionisation of insulin in the presence of Glargine and stability of solutions of insulin or insulin analogues investigated.

[5] = room temperature, up to 24 hours

| Substance | mean plasma concentration as a function of time after dosing ([1]; 30 mg/kg dose, FIG. 15) | AUClast (AUCt) as function of dose: intercept ([1]; AUClast in ng · h/ml, linear regression against dose) [area units] | AUClast (AUCt) as function of dose: slope ([1]; AUClast in ng · h/ml, linear regression against dose, oral tablets, T1D patients) [area units/mg] | Cmax as function of dose: intercept ([1]; Cmax in ng/ml, linear regression against dose) [concentration units] | Cmax as function of dose: slope ([1]; Cmax in ng/ml, linear regression against dose, oral tablets, T1D patients) [concentration units/mg] | correlation of maximal plasma concentration and area under the PK curve with dose ([1]; p<0.05) | extract stability [2] | frozen stability in plasma at −20° C. ([3]; 244 days storage at −20° C.) | frozen stability in plasma at −80° C. ([3]; 244 days storage at −80° C.) | freeze/thaw stability in plasma ([3]; after five freeze/thaw cycles) | stability in plasma stored at room temperature [3, 5] | solution stability at room temperature [4, 5] | solution stability at −20° C. ([4]; −20° C., up to 40 days) |
| --- | --- | --- | --- | --- | --- | --- | --- | --- | --- | --- | --- | --- | --- |
| IN-105: rapid acting insulin analogue for oral delivery; human insulin sequence conjugated with short chain alkyl-polyethylene glycol at ε-amino group of lysine B29 | well-defined peak concentration and subsequent clearance is evident | −243.525 | 26.427 | −2.421 | 0.431 | linearly correlated significantly | stable | stable | stable | stable | stable |  |  |
| [^15N] IN-105: IN-105 labelled with stable isotope 15N by fermentation in labelled medium; used as internal standard |  |  |  |  |  |  |  |  |  |  |  | stable | stable |
